Molecular target: the molecule itself
Test: SEC

B1: S. cerevisiae Dmc1 (ScDmc1), N-terminally (His)6-tagged (natural protein, UniProt P25453 1-334, looked up)
chain: MSVTGTEIDSDTAKNILSVDELQNYGINASDLQKLKSGGIYTVNTVLSTTRRHLCKIKGLSEVKVEKIKEAAGKIIQVGFIPATVQLDIRQRVYSLSTGSKQLDSILGGGIMTMSITEVFGEFRCGKTQMSHTLCVTTQLPREMGGGEGKVAYIDTEGTFRPERIKQIAEGYELDPESCLANVSYARALNSEHQMELVEQLGEELSSGDYRLIVVDSIMANFRVDYCGRGELSERQQKLNQHLFKLNRLAEEFNVAVFLTNQVQSDPGASALFASADGRKPIGGHVLAHASATRILLRKGRGDERVAKLQDSPDMPEKECVYVIGEKGITDSSD
  binding result: binds

From article PMC3732525 (DNA repair, 2013)
